In paper PMC4402148:

Biological target: DDX3X D1 WT (Homo sapiens, UniProt O00571 135-407)
Assay: NMR CSP

Chain of DDX3X D1 WT (O00571 135-407): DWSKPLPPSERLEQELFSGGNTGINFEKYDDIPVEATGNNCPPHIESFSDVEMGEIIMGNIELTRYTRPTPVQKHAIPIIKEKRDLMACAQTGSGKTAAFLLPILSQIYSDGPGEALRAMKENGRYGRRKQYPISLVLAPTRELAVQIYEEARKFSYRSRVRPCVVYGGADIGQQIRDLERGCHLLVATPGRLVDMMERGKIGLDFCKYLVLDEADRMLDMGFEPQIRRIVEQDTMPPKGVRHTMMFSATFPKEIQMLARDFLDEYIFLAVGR

B1: blunt 14-mer dsRNA (NMR) (dsRNA)
RNA 1: GGGCGGGCCCGCCC
RNA 2: GGGCGGGCCCGCCC
binding result: binds
